Experimental findings from patent US20050244828A1 are described below.

The target in this assay is CD22-Fc fusion protein (extra-cellular domain of human CD22 fused to human IgG Fc) (human) (UniProt P20273).

Substance “BL22, a recombinant immunotoxin containing the FV domains of RFB4 fused to PE38, a truncated form of (from UniProt P11439 278-638)” had a percent inhibition of measured sCD22 level of 50%.
